From patent US20240150457A1 come the findings set out here.

Assay [1] concerns the target Cynomolgus monkey PAR-2 on cells (cynomolgus monkey). The assay can be described thus: cell-based or functional assay.
The target of assay [2] is Recombinant cynomolgus monkey PAR-2 (cynomolgus monkey). Nature of the assay: SPR (Biacore), antibody captured on Protein A chip, recombinant PAR-2 injected.
For assay [3], the target named is Cynomolgus monkey PAR-2 on cells (cynomolgus monkey). The assay can be described thus: cell-based or functional assay. The source holds these as a separate data set.

B1: P24E1102 (antibody, human IgG4 S228P, kappa, V domains shown)
VH: QVQLVQSGAEVKKPGSSVKVSCKASGFSLSSYAISWVRQAPGQGLEWMGVIWGNQNVYYAQKFQGRVTITADESTSTAYMELSSLRSEDTAVYYCARWKGYKDYPFDYWGQGTLVTVSS
VL: EIVLTQSPATLSLSPGERATLSCRASQNVYKWLDWYQQKPGQAPRLLIYNANTRATGIPARFSGSGSGRDFTLTISSLEPEDFAVYYCQQHHSGWTFGGGTKVEIKR
The term Kd denotes the free concentration of one partner at which half of the binding sites on the other are occupied at equilibrium, for simple one-to-one binding. Take B1: in assay [1], the IC50 mean, calcium flux at SLIGKV EC80 (Nomad line) came out at 0.00398 µM and the IC50 mean, β-arrestin at SLIGKV EC80 (Nomad line) turned out to be 0.0152 µM. Moreover, the Kd in assay [2] worked out at 0.00445 µM.

B2: SLIGKV (peptide)
peptide: SLIGKV
Consider B2, for which, in assay [3], the SLIGKV EC80 mean, calcium flux was found to be 39 µM and the SLIGKV EC80 mean, β-arrestin amounted to 107 µM.
